Experimental data from paper PMC7484162.

Target: CD33 (UniProt P20138)
Chain of UniProt P20138 (P20138 18-364): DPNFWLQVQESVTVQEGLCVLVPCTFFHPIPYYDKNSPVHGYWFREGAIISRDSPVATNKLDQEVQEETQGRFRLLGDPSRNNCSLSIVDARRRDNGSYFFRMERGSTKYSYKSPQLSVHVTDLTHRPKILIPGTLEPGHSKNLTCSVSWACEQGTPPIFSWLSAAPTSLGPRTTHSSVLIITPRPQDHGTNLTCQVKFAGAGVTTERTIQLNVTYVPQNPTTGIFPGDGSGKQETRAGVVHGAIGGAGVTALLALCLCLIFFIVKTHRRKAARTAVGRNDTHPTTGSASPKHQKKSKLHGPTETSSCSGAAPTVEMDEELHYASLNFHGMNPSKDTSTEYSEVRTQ

Work on “cam16-wt15–33 TriKE (second-generation Tri-specific Killer Engager) (from UniProt P40933 49-162)” yielded a Kd of 25.6 nM.
